In paper PMC2115152:
“And” between values parts separate entries of the source, which are not always exact repeats. Identical values can stand only once. Blank lines part the entries; values can stand above or below the substance they belong to.

Legend:
Test in all cases: co-sedimentation
[1] = molecular target: F-actin first mixed with low mol wt TMs (rabbit | rat) (UniProt P68135)
[2] = molecular target: F-actin first mixed with high mol wt TMs (rabbit | rat) (UniProt P68135)
[3] = molecular target: F-actin (rabbit) (UniProt P68135)
[4] = molecular target: F-actin with 83-kD protein (rabbit | rat) (UniProt P68135)

Sequence of 83-kD nonmuscle caldesmon (Q62736 whole entry): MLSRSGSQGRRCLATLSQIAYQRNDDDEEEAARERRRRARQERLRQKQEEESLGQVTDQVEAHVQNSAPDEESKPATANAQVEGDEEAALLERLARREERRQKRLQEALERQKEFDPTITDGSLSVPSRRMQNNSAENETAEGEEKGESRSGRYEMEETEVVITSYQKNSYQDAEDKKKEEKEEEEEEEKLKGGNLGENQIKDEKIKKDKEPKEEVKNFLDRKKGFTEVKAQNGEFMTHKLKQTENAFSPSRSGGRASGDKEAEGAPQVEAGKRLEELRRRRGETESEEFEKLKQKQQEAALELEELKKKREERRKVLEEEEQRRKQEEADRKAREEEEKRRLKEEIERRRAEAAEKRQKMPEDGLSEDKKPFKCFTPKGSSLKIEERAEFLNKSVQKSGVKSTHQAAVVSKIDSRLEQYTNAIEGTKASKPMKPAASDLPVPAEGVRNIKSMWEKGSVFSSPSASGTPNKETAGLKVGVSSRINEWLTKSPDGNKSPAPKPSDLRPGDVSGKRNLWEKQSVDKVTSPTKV

stoichiometry N (actin per 83-kD protein) [1]: 6 | stoichiometry N (actin per 83-kD protein) [2]: 6
Substance: 83-kD nonmuscle caldesmon (from UniProt Q62736 1-531) (natural protein)

Ka [3]: 440000 M⁻¹ | TM bound to actin (0.12 mg/ml TMs, no 83-kD protein) [3]: 0.4 µmol | molar ratio of TMs to sedimentable actin (0.06 mg/ml TMs, no 83-kD protein) [3]: 157 actin per TM | molar ratio of TMs to sedimentable actin (0.12 mg/ml TMs, no 83-kD protein) [3]: 29 actin per TM | percent of actin saturated with TMs (0.06 mg/ml TMs, no 83-kD protein) [3]: 3% and 4% | percent of actin saturated with TMs (0.12 mg/ml TMs, no 83-kD protein) [3]: 20% | percent of the TM mass bound to actin (0.06 mg/ml TMs, no 83-kD protein) [3]: 5% and 7% | stoichiometry N [3]: 6 actin per TM | Ka [4]: 1.5e+06 M⁻¹ | molar ratio of TMs to sedimentable actin (0.06 mg/ml TMs, 83-kD protein added) [4]: 14 actin per TM
Substance: low mol wt TMs (a mixture of TM-4 [32,400] and TM-5 [32,000])

percent of the TM mass bound to actin (50 mM KCl, no 83-kD protein) [3]: < 10% | percent of the TMs bound to actin (50 mM KCl, no 83-kD protein) [3]: 10% | fold increase of TM binding to actin against no 83-kD protein (50 mM KCl) [4]: 10 fold
Substance: high mol wt TMs (a mixture of TM-1 [40,000] and TM-2 [36,500])
